The values below come from PMC6250423, “Molecular mechanisms that stabilize short term synaptic plasticity during presynaptic homeostatic plasticity” (eLife, 2018).

For orientation: Kd means the constant that tells how readily two partners part at equilibrium.

Assay [1] addresses T1, MBP-Rop (recombinant wild-type Rop, Drosophila Unc-18) (Drosophila melanogaster, UniProt Q07327 1-597).
T1 construct: Rop (Ras opposite, Unc-18 orthologue), Drosophila melanogaster; cDNA SD04216 amplified with primers from the start ATG to the stop codon and cloned into pMAL-c5E; Expressed from pMAL-c5E (NEB N8110); printed size of the fusion 110 kDa; also called MBP-Rop^WT; Ras opposite; source: Rosetta cells (Novagen), purified (amylose resin, eluted with maltose)
The assay is described as follows: pull-down; GST-syx1A^ΔC (2 ug) bound to GST bind resin, 1 hr at 4°C with MBP-Rop or MBP-Rop^G11 at 0-6 uM in NP40 buffer (1% NP-40, 150 mM NaCl, 2 mM EDTA, phosphate); SDS-PAGE, Coomassie, fraction bound quantified in ImageJ, Kd from a dose response curve fit (Prism 6); n = 2. The settings on record: both partners purified.

In the next assay the target is T2, MBP-Rop^G11 (D45N) (Drosophila melanogaster, UniProt Q07327 1-597, D45N).
T2 construct: Rop (Ras opposite, Unc-18 orthologue), Drosophila melanogaster; PMAL-Rop with the point mutation of the Rop^G11 allele (Asp45 to Asn; nucleotide G133A) made by site-directed mutagenesis; Same construct as m1 with D45N; the mutation is that of the Rop^G11 allele of Harrison et al., 1994; also called recombinant Rop^G11 mutant protein; source: Rosetta cells (Novagen), purified (amylose resin, …)
T2 sequence (Q07327 whole entry D45N): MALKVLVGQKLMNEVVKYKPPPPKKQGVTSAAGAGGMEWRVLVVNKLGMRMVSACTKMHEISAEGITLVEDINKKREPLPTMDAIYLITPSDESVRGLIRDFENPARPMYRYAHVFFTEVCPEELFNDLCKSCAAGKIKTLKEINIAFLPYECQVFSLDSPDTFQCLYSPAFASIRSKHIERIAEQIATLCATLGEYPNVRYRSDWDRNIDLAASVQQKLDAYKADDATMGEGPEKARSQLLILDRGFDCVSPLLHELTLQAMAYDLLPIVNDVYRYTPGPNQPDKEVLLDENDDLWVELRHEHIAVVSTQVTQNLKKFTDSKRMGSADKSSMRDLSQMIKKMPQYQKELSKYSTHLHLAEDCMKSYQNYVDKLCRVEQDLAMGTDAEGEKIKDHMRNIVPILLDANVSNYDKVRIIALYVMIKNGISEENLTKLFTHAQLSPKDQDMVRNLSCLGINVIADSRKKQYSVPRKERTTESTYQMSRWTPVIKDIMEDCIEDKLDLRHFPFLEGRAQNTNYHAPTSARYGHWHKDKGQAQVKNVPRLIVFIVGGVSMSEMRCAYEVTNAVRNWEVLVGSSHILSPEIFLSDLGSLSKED
The assay is described as above. The following applies: both partners purified.

T1 sequence (Q07327 whole entry, the tested form may be a part): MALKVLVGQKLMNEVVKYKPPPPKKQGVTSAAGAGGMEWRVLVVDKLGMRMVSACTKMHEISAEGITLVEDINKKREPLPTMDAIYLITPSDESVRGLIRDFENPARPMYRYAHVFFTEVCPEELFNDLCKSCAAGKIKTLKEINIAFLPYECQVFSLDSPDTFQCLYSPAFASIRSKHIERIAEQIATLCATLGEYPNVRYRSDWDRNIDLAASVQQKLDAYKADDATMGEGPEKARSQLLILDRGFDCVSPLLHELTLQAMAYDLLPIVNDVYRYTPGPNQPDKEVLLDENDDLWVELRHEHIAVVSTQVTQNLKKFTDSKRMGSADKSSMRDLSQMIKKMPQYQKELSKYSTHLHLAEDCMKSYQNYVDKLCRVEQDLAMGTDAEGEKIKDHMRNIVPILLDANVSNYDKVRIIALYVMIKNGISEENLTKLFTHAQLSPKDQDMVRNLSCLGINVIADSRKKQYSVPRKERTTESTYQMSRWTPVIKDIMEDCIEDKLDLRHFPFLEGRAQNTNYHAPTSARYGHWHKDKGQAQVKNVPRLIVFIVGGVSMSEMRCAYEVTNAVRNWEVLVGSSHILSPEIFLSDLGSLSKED

B1: GST-syx1A^ΔC (Syntaxin1A, amino acids 1-268) (domain or fragment, Drosophila melanogaster, UniProt Q24547 1-268, looked up)
chain: MTKDRLAALHAAQSDDEEETEVAVNVDGHDSYMDDFFAQVEEIRGMIDKVQDNVEEVKKKHSAILSAPQTDEKTKQELEDLMADIKKNANRVRGKLKGIEQNIEQEEQQNKSSADLRIRKTQHSTLSRKFVEVMTEYNRTQTDYRERCKGRIQRQLEITGRPTNDDELEKMLEEGNSSVFTQGIIMETQQAKQTLADIEARHQDIMKLETSIKELHDMFMDMAMLVESQGEMIDRIEYHVEHAMDYVQTATQDTKKALKYQSKARRKK
notes: Syntaxin 1A, Drosophila melanogaster, amino acids 1-268; Expressed from pGEX-4T1; printed size of the fusion 60 kDa; The nucleotide change A802T would turn codon 268 into a stop, so the chain may end at residue 267 rather than 268; also called recombinant Syntaxin1A
Turning to B1, the Kd in assay [1] came to 0.4 µM; with MBP-Rop^G11 (D45N) it was 36.1 µM.
